Here are results for four molecules from publication PMC8060896 (The Journal of Biological Chemistry, 2002).

Series [1] has as its target N-CEACAMFc (N-domain of murine CEACAM1^a linked to a carboxyl-terminal IgG1 Fc) (murine). As to the kind of experiment: pull-down.
The target is the same in series [2]. As to the kind of experiment: pull-down. This is another data set of the same source.
Target sequence in this assay (P31809 35-428): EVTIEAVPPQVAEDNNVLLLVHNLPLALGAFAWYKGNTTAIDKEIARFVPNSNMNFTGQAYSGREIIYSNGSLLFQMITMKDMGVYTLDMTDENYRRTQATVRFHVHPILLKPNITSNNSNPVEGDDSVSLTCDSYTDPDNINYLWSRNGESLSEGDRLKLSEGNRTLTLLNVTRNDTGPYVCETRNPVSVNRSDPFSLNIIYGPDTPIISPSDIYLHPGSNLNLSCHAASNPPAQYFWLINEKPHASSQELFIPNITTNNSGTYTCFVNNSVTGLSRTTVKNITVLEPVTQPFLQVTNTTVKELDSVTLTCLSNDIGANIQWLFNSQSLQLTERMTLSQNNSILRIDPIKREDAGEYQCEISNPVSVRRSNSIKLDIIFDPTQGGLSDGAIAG
Series [3] concerns the molecule itself. As to the kind of experiment: velocity sucrose gradient ultracentrifugation.

With “Hetero-oligomer of S_(T212S/Y214S/Y216S) with wild-type S1_(330) (from UniProt P11225 14-1235; P11225 14-330) (complex)”, the 35S in the boxed band precipitated with N-CEACAMFc in series [1] is 4330 cpm. Take “S_(T212S/Y214S/Y216S) (full-length S of JHM strain with the indicated substitutions) (from UniProt P11225 14-1235) (natural protein)”: the 35S in the boxed band precipitated with N-CEACAMFc in series [1] stood at 2140 cpm.

B1: S1 co-produced with N-CEACAMFc in 293 cells (domain or fragment)
chain: GYIGDFRCIQTVNYNGNNASAPSISTEAVDVSKGRGTYYVLDRVYLNATLLLTGYYPVDGSNYRNLALTGTNTLSLTWFKPPFLSEFNDGIFAKVQNLKTNTPTGATSYFPTIVIGSLFGNTSYTVVLEPYNNIIMASVCTYTICQLPYTPCKPNTNGNRVIGFWHTDVKPPICLLKRNFTFNVNAPWLYFHFYQQGGTFYAYYADKPSATTFLFSVYIGDILTQYFVLPFICTPTAGSTLAPLYWVTPLLKRQYLFNFNEKGVITSAVDCASSYISEIKCKTQSLLPSTGVYDLSGYTVQPVGVVYRRVPNLPDCKIEEWLTAKSVPSPLNWERRTFQNCNFNLSSLLRYVQAESLSCNNIDASKVYGMCFGSVSVDKFAIPRSRQIDLQIGNSGFLQTANYKIDTAATSCQLYYSLPKNNVTINNYNPSSWNRRYGFKVNDRCQIFANILLNGINSGTTCSTDLQLPNTEVATGVCVRYDLYGITGQGVFKEVKADYYNSWQALLYDVNGNLNGFRDLTTNKTYTIRSCYSGRVSAAYHKEAPEPALLYRNINCSYVFTNNISREENPLNYFDSYLGCVVNADNRTDEALPNCNLRMGAGLCVDYSKSRRARRSVSTGYRLTTFEPYMPMLVNDSVQSVGGLYEMQIPTNFTIGHHEEFIQIRAPKVTIDCAAFVCGDNAACRQQLVEYGSFCDNVNAILNEVNNLLDNMQLQVASALMQGVTISSRLPDGISGPIDDINFSPLLGCIGSTCAE
With B1, the ^35S-labeled S1:^35S-labeled N-CEACAMFc ratio in series [2] stood at 3.4.

B2: S1 (769-residue S1 fragment of the MHV strain JHM spike protein, produced independently from cDNA) (domain or fragment)
chain: GYIGDFRCIQTVNYNGNNASAPSISTEAVDVSKGLGTYYVLDRVYLNATLLLTGYYPVDGSNYRNLALTGTNTLSLTWFKPPFLSEFNDGIFAKVQNLKTNTPTGATSYFPTIVIGSLFGNTSYTVVLEPYNNIIMASVCTYTICQLPYTPCKPNTNGNRVIGFWHTDVKPPICLLKRNFTFNVNAPWLYFHFYQQGGTFYAYYADKPSATTFLFSVYIGDILTQYFVLPFICTPTAGSTLLPLYWVTPLLKRQYLFNFNEKGVITSAVDCASSYISEIKCKTQSLLPSTGVYDLSGYTVQPVGVVYRRVPNLPDCKIEEWLTAKSVPSPLNWERRTFQNCNFNLSSLLRYVQAESLSCNNIDASKVYGMCFGSVSVDKFAIPRSRQIDLQIGNSGFLQTANYKIDTAATSCQLYYSLPKNNVTINNYNPSSWNRRYGFNDAGVFGKSKHDVAYAQQCFTVRPSYCPCAQPDIVSACTSQTKPMSAYCPTGTIHRECSLWNGPHLRSARVGSGTYTCECTCKPNPFDTYDLRCGQIKTIVNVGDHCEGLGVLEDKCGNSDPHKGCSCANDSFIGWSHDTCLVNDRCQIFANILLNGINSGTTCSTDLQLPNTEVATGVCVRYDLYGITGQGVFKEVKADYYNSWQALLYDVNGNLNGFRDLTTNKTYTIRSCYSGRVSAAYHKEAPEPALLYRNINCSYVFTNNISREENPLNYFDSYLGCVVNADNRTDEALPNCDLRMGAGLCVDYSKSRRARR
What is called stoichiometry N is a count of units in the complex or per binding partner. For B2, the “stoichiometry N” value in series [3] turned out to be 2.
